Experimental data: US20150259430A1 (MAB DISCOVERY, published 2015)

B1: Antibody 24 (antibody, V domains shown)
VH: QSVEESGGRLVTPGTPLTLTCTVSGFSLSSNAISWVRQAPGKGLEWIGFINIYGSTYYASWAKGRFTISRTSTTVDLKMTSLTTEDTATYFCARDRTGDSPTRLDLWGQGTLVTVSS
VL: DVVMTQTPASVEAAVGGTVTIKCQASQSISSYLSWYQQKPGQPPKLLIYDASTLASGVPSRFKGSGSGTQFTLTISDLECADAATYYCQCTYGYGASSAYGNAFGGGTEMVVK
notes: rabbit IgG in B-cell supernatant
B2: Antibody 28 (antibody, V domains shown)
VH: QEQLEESGGDLVKPGASLTLTCKVSGFSLTSGYYMCWVRQAPGKGLEWLACIYTGSSGRTYYASWAKGRFTISKTSSTTVTLQMTSLTAADTATFFCARELYLSSVLWGPGTLVTVSS
VL: DVVMTQTPASVSEPVGGTVTIKCQASQSISSSYLSWYQQKPGQPPKLLIYRASTLESGVPSRFKGSGSGTEFTLTISDLECADAATYYCQCTDYAGSYVGGAFGGGTEVVVK
notes: as for B1
B3: Antibody 32 (antibody, V domains shown)
VH: QSVEESGGRLVTPGTPLTLTCTVSGFSLSSYDMSWVRQAPGKGLEWIGFIDGDSNTYDATWAKGRFTISKTSTTVDLKITSPTTEDTATYFCTRGFNLWGQGTLVTVSS
VL: DVVMTQTPASVSEPVGGTVTIKCQASQSISSYLAWYQQKPGQPPKLLIYKASTLASGVSSRFKGSGSGTEFTLTISDLECADAATYYCQCSAGGRSGIGGFGGGTEVVVK
notes: as for B1
B4: Antibody 52 (antibody, V domains shown)
VH: QSVEESGGRLVTPGTALTLTCTVSGFSLSSGDMSWVRQAPGKGLEWIGYIWSGVSTYYANWAKGRFTISKTSSTTVDLKMTSLTIEDTATYFCARVDFYSYVYSLWGPGTLVTVSS
VL: ALVMTQTPASVEAAVGGTVTIKCQASQSISSCLAWYQQKPGQPPKLLIYSASTLASGVPSRFKGSGSGTEYTLTISGVECADAATYYCQQHYTSNNIDNAFGGGTEVVVK
notes: as for B1
B5: Antibody 53 (antibody, V domains shown)
VH: QSLEESGGRLVTPGGSLTLTCTVSGSDISTYDASWVRQAPGKGLEWIGYIWSGTKTYYASWAKGRFTISKTSSTTVDLKMTSLTTEDTATYFCATVNTYTYVYSLWGPGTLVTVSS
VL: AYDMTQTPASVEVAVGGTVTIKCQASQSISSSLAWYQQKSGQPPKLLIYLASTLASGVPSRFKGSGSGTEYTLTISGVECADAATYYCQQHYTALNVDNAFGGGTEVVVK
notes: as for B1
B6: Antibody 55 (antibody, V domains shown)
VH: QSLEESGGRLVTPGGSLTLTCTVSGSDISSYDMSWVRQAPGKGLEWIGYIWSGTTIYYASWPKGRFTISKTSSTTVDLKMTSLTTEDTATYFCAAINIYTYVYSLWGPGTLVTVSS
VL: AYDMTQTPASVEAAVGGTVTIKCQASESIYSSLAWYQQKSGQPPKLLIYLASTLASGVPSRFKGSGSGTDYTLTISGVECADAATYYCQQHYSGSNVDNAFGGGTEVVVK
notes: as for B1
B7: Antibody 79 (antibody, V domains shown)
VH: QSVEESGGRLVTPGTPLTLTCTVSGFSLSSNAMSWVRQAPGKGLEWIGIINIYGSTNYASWAKGRFTISKTSSTTVDLKITSPTTEDTATYFCARDYGGVSATRLDLWGQGTLVTVSS
VL: DVVMTQTPASVEAAVGGTVTIKCQASQSIGSYLSWYQQKPGQPPKLLIYDASNLEDGVPSRFKGSGSGTEYTLTISDLECADAVTYYCQCTYGYGISSSYGNAFGGGTEVVVK
notes: as for B1
B8: Antibody 1 (antibody, V domains shown)
VH: QSLEESGGRLVTPGTPLTLTCTASGFSLSSYAMIWVRQAPGEGLEYIGIIITGGSAYYANWAKGRFTISRTSTTVDLKMTSLTTEDTATYFCARGYSGSSGDLWGQGTLVTVSS
VL: DVVMTQTPASVSEPVGGTVTIKCQASQSISSWLSWYQQKPGQPPKLLIYGASNLASGVSSRFKGSRSGTEYTLTISDLECADAATYYCQCTDYTSKYVGAFGGGTEVLVR
notes: as for B1
B9: Antibody 6 (antibody, V domains shown)
VH: QSVEESGGRLVTPGTPLTLTCTVSGFSLSSYTMGWVRQAPGKGLEYIGIINTGGYTYYASWAKGRFTISRTSTTVDLSMTSLTTEDTATYFCARVYPGSSCDLWGQGTLVTVSS
VL: DVVMTQTPASVSEPVGGTVTIKCQASQSISSSYLSWYQQKPGQPPKLLIYRASTLESGVPSRFKGSGSGTEFTLTISDLECADAATYYCQCTDYAGSYVGGAFGGGTEVVVK
notes: as for B1
B10: Antibody 9 (antibody, V domains shown)
VH: QEQLEESGEGLVKPGTPLTLTCTASGFSLSSGDMSWVRQAPGKGLEWIGTIGVDGSTDYANWAEGRFTISRTSTTVDLKMTSPTTEDTATYFCARGLFDDYTFNLWGQGTLVTVSS
VL: AYDMTQTPASVEVAVGGTVTIKCQASQNIYTYLSWYQQKPGQPPKLLIYKTSTLASGVPSRFSGSGSGTEYTLTVSGVQCDDAATYYCQQGYTTSSNVATPFGGGTEVVVK
notes: as for B1
B11: Antibody 15 (antibody, V domains shown)
VH: QSVEESGGRLVTPGTPLTLTCTVSGFSLNSHAMSWVRQAPGKGLEWIGIISSSGSAWYATWVKGRFTISKTSTTVDLKMTSLTTEDTATYFCARDSAMVPSNFNLWGQGTLVTVSS
VL: AIEMTQSPPSLSASVGETVRIRCLASEFLFNAVSWYQQKPGKPPTLLISGASNLESGVPPRFSGSGSGTDYTLTIGGVQAEDVATYYCLGDFSGGADLTFGAGTKVEIK
notes: as for B1
B12: Antibody 18 (antibody, V domains shown)
VH: QSVEESGGRLVTPGTPLTLTCTVSGFSLSTYWMSWVRQAPGKGLEYIGFINTGGNAYYASWAKGRFTISKTSTSVDLKITSPTTEDTATYFCAGAYVGDVGDGYALTLWGQGTLVTVSS
VL: DVVMTQTPASVSEPVGGTVTIKCQASQSIGNKLAWYQQVPGQPPKLLIYSASPLASGVSSRFKGSRSGTEYTLTISDLECADAATYYCQCTYYGSSGNAFGGGTEVVVK
notes: as for B1
B13: Antibody 20 (antibody, V domains shown)
VH: QSLEESGGGLVQPEGSLTLTCTASGLDASSNCWVCWVRQAPGKGLEWIACIYAIGSGVTYYASWVNGRFSISKTSSTTVTLQMTSLTVADTATYLCARVLNGVGYIDLWGPGTLVTVSS
VL: DIVMTQTPSSVEAAVGGTVTIKCQASQSVYNNNWLAWYQQIPGQPPKLLIYESSTLASGVPSRFKGSGSGTQFTLTISDVQCDDAAMYYCQTYYYSSSRTYAFGGGTEVVVK
notes: as for B1
B14: Antibody 21 (antibody, V domains shown)
VH: QEHLEESGGGLVKPPGSLTLTCTASGFSFSSTYYICWVRQAPGKGLEWIGCIYAGSGTTYYASWAKGRFTISKTSSTTVTLQMASLTAADTATYFCARSSDSWTYGMDLWGPGTLVTVSS
VL: DIVMTQTPASVSEPVGGTVTIKCQASQSISSYLAWYQQKPGQPPKRLIYKASTLASGVPSRFKGSGSGTDFTLTISDLECADAATYYCQCTYGNTGSNFFYGFGGGTEVVVK
notes: as for B1
B15: Antibody 34 (antibody, V domains shown)
VH: QEQLVESGGGLVQPEGSLTLTCKASGFSFSSGYYMCWVRQAPGKGLEWIACIYADSSESTYYASWAKGRFTISKTSSTTVTLQVTSLTAADTATYFCARWGTVAGYSTFNLWGPGTLVTVSS
VL: DVVMTQTPASVSEPVGGTVTIKCQASQSISTALAWYQQKPGQPPKLLIYFTSTLASGVSSRFKGSGSGAEFTLTISDLECADAATYYCQGYYYVTNFPFGGGTEVVVK
notes: as for B1
B16: Antibody 45 (antibody, V domains shown)
VH: QSVEESGGRLVTPGTPLTLTCTVSGFSLSSYAMTWVRQAPGKGLEWIGIIDHSRATYYANWAKGRFTISKTSSTTVDLKVTSLTTEDTATYFCARFFNPGGSGYLRLWGQGTLVTVSS
VL: DVVMTQTPASVSEPVGGTVTIKCQASQIISNWLAWYQQKPGQPPKLLIYGASILASGVPSRFKASRSGTDYTLTIGDLECADAATYYCQCPDYSDTSLGSFGGGTEVVVR
notes: as for B1
B17: Antibody 72 (antibody, V domains shown)
VH: QSLEESGGRLVTPGTLLTLTCTASGIDLSGHAMAWVRQAPGKGLEWIGIIYDNGITNYPTWAKGRFTISKTSTTVELKFTSPTTEDTATYFCARDTGNGALRLTLWGPGTLVTVSS
VL: DIVMTQTPSPVSAAVGGTVTIKCQASQSIGSWLSWYQQKPGQRPKLLIYGASTLESGVPSRFKGSGSGTEFTLTISDLECADAATYYCHCTYGSVSGNAFGGGTEVVVK
notes: as for B1
B18: Antibody 74 (antibody, V domains shown)
VH: QSVEESGGRLVTPGTPLTLTCTVSGFSLSSGYMNWVRQAPGKGLEWIGRIHTLSGSIWYASWVKGRFTISKTSTTVDLKMTSLTTKDTATYFCARGNAGGSIEYGMDLWGPGTLVTVSA
VL: AYDMTQTPASVEAAVGGTVTIKCQASESITNYLNWYQQKPGQPPKLLIYSASTLASGVPSRFKGSGSGTQFTLTISGVECADAGTYYCQQGYSLINVGDIFGGGTEVVVR
notes: as for B1
B19: Antibody 78 (antibody, V domains shown)
VH: QSVEESGGRLVTPGTPLTLTCTVSGIDLSSYWMIWVRQAPGEGLEYIGFISNGGGAYYANWTKGRFTISRTSTTVDLKMTSLTTEDTATYFCARAYTTVTIGGFDLWGPGTLVTVSS
VL: AYDMTQTPASVEVAVGGTVTINCQASQNIYNGLAWYQQKPGQPPKLLIYLASTLASGVPSRFKGSGSGTEFTLTISDLECADAATYYCQQGFSVNNVGNVFGGGTEMVVK
notes: as for B1
B20: Antibody 88 (antibody, V domains shown)
VH: QSVEESGGRLVTPGTPLTLTCTVSGFPLSSYVMSWVRQAPGTGLEYIGIVGIGGSAYYASWAKGRFTISRTSTTVDLKMTSLTPEDTATYFCARGAGGNFYSPLDLWGQGTLVTVSS
VL: DIVMTQTASPLSGAVGGTVTIKCQASQSISNELAWYQQKPGQRPKLLIYLASTLASGVPSRFKGSGSGTDFTLTISDLECADAATYYCQSYSDTSSISYGYGFGGGTEVVVK
notes: as for B1

Key:
[1] = molecular target: T1, recombinant Fc chimeric conjugate of human HER2 (human, UniProt P04626 23-652); experiment: ELISA, coated antigen
T1 construct: extracellular domain; Coated on the ELISA plate
Description: (§1) Microtiter plates were coated with a) c-Met, IGF-1R, EGFR, HER2, and/or HER3 protein or b) EGFR, HER2, and/or HER3 (recombinant Fc chimeric conjugates of human c-Met, IGF-1R, EGFR, HER2, HER3 or IL12 Rβ1). After a blocking process, specific antibodies from B-cell supernatants bind to the targets and are then detected by a POD-labeled anti-rabbit IgG antibody. The IL12R binding was used as a counter-screen.
(§2) 12.5 μL 0.5 μg/mL protein in PBS was transferred to a microtiter plate incubated and washed 3× with Wash Buffer. 90 μL Block Buffer was added to each well, incubated and washed. 12.5 μL Standard Antibody (Anti-EGF-Receptor; HER2 Rabbit anti-Human Monoclonal (extracellular domain) (SP3) Antibody; HER3 (N-terminal) antibody; start concentration 2 μg/ml; IL-12Rbeta1 antibody start concentration 500 ng/ml) in 1:2 dilutions or sample diluted in ELISA buffer was added, incubated and washed. 12.5 μl 1:5000 POD-Antibody (Anti-rabbit IgG, peroxidase-linked species-specific Fab2 fragment (from donkey) (ECL); assay dilution: 1:5000) in Elisa Buffer was added, incubated and washed. 15 μl TMB was added and 15 μl HCl was added after sufficient development. Absorbance (Optical Density O.D.) was read at 450 nm/620 nm.

[2] = molecular target: T2, recombinant Fc chimeric conjugate of human HER3 (human, UniProt P21860 20-643); experiment: ELISA, coated antigen
T2 construct: extracellular domain; Coated on the ELISA plate
T2 sequence (P21860 20-643, change not shown): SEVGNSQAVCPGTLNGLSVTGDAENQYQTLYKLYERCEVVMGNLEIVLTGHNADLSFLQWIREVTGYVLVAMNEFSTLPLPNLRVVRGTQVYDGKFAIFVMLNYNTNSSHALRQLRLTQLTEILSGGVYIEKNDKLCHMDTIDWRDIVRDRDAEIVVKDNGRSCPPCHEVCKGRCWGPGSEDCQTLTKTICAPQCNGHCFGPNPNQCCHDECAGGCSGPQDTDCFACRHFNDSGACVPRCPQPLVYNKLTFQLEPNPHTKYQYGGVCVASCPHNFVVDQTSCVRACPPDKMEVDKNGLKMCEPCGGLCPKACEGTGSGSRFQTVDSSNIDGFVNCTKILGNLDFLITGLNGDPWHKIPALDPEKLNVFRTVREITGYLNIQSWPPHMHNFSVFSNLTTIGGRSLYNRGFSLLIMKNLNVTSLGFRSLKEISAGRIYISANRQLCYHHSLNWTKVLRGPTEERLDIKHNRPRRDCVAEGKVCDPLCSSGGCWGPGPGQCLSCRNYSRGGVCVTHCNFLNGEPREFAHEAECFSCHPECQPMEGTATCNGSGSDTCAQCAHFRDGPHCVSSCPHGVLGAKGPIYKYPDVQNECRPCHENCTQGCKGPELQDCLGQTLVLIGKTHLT
Description: as §1, §2

| Binder | binding result [1] | binding result [2] |
| --- | --- | --- |
| B1 | no binding (tested: OD 0.1 or lower) | – |
| B2 | no binding (tested: OD 0.1 or lower) | – |
| B3 | no binding (tested: OD 0.1 or lower) | – |
| B4 | no binding (tested: OD 0.1 or lower) | – |
| B5 | no binding (tested: OD 0.1 or lower) | – |
| B6 | no binding (tested: OD 0.1 or lower) | – |
| B7 | – | no binding (tested: OD 0.1 or lower) |
| B8 | – | no binding (tested: OD 0.1 or lower) |
| B9 | – | no binding (tested: OD 0.1 or lower) |
| B10 | – | no binding (tested: OD 0.1 or lower) |
| B11 | – | no binding (tested: OD 0.1 or lower) |
| B12 | – | no binding (tested: OD 0.1 or lower) |
| B13 | – | no binding (tested: OD 0.1 or lower) |
| B14 | – | no binding (tested: OD 0.1 or lower) |
| B15 | – | no binding (tested: OD 0.1 or lower) |
| B16 | – | no binding (tested: OD 0.1 or lower) |
| B17 | – | no binding (tested: OD 0.1 or lower) |
| B18 | – | no binding (tested: OD 0.1 or lower) |
| B19 | – | no binding (tested: OD 0.1 or lower) |
| B20 | – | no binding (tested: OD 0.1 or lower) |
